The target of this assay is Canavalia villosa seed lectin (Cvill) (Canavalia villosa). In words: crystal structure; Cvill with alpha-methyl-D-mannopyranoside; 17.5% PEG1000, 0.1 M potassium phosphate citrate pH 4.2, 200 mM lithium sulfate, room temperature; space group I222, one monomer per asymmetric unit; tetramer formed by the crystal's 222 symmetry, dimers and tetramers predicted with PISA.

The stoichiometry N is a count of units in the complex or per binding partner. For the substance “Canavalia villosa seed lectin (Cvill) (natural protein)”, the stoichiometry N is 4.

Values taken from PMC10649158.
